For one data set, the target named is T1, TRBP (Homo sapiens, UniProt Q15633 1-366).
T1 sequence: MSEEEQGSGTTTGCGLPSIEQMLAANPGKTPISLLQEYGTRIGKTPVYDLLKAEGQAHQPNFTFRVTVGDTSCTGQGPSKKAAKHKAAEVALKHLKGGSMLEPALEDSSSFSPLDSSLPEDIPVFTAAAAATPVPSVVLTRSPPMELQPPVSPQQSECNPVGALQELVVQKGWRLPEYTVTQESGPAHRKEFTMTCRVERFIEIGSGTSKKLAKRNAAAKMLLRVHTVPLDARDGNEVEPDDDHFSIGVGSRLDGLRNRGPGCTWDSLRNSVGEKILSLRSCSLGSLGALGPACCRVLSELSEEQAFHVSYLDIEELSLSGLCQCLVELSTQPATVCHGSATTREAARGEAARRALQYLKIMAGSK
Description: EMSA; virtually no binding; TRBP EMSA: 20 mM Tris pH 7.5, 150 mM NaCl, 2 mM EDTA, 1 mM 2-ME, 1 mM DTT, 50 ng/ml salmon sperm DNA, RNasin, 0.5 nM siRNA, 30 min; PAZ EMSA: 1 pmol/ul PAZ, 5 fmol/ul siRNA, 20 mM Tris-HCl pH 7.5, 100 mM NaCl, 2 mM EDTA, 1 mM DTT, 5% glycerol, 50 ng/ul poly(dA-dT), RNasin, 30 min, room temperature. To be noted: protein: recombinant; tags: N-terminal 6xHis; label: 32P guide strand; 19 bp, 2-nt 3' overhangs. For orientation: In EMSA bound probe runs differently from free probe, usually more slowly.

The target in data set [1] is T2, GST-PAZ (human AGO1 PAZ domain) (Homo sapiens, UniProt Q9UL18 222-376). Description: EMSA; TRBP EMSA: 20 mM Tris pH 7.5, 150 mM NaCl, 2 mM EDTA, 1 mM 2-ME, 1 mM DTT, 50 ng/ml salmon sperm DNA, RNasin, 0.5 nM siRNA, 30 min; PAZ EMSA: 1 pmol/ul PAZ, 5 fmol/ul siRNA, 20 mM Tris-HCl pH 7.5, 100 mM NaCl, 2 mM EDTA, 1 mM DTT, 5% glycerol, 50 ng/ul poly(dA-dT), RNasin, 30 min, room temperature. To be noted: protein: recombinant; tags: N-terminal GST, C-terminal 6xHis; label: 32P guide strand; 19 bp, 2-nt 3' overhangs.
T2 sequence (Q9UL18 222-376): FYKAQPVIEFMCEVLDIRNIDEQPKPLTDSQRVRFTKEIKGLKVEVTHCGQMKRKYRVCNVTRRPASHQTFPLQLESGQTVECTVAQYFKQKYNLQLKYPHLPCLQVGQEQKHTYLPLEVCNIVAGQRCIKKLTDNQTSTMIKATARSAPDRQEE

Data set [2] addresses T2, GST-PAZ (human AGO1 PAZ domain). Put plainly: EMSA; strong; TRBP EMSA: 20 mM Tris pH 7.5, 150 mM NaCl, 2 mM EDTA, 1 mM 2-ME, 1 mM DTT, 50 ng/ml salmon sperm DNA, RNasin, 0.5 nM siRNA, 30 min; PAZ EMSA: 1 pmol/ul PAZ, 5 fmol/ul siRNA, 20 mM Tris-HCl pH 7.5, 100 mM NaCl, 2 mM EDTA, 1 mM DTT, 5% glycerol, 50 ng/ul poly(dA-dT), RNasin, 30 min, room temperature. To be noted: protein: recombinant; tags: N-terminal GST, C-terminal 6xHis; label: 32P guide strand; 19 bp, 2-nt 3' overhangs.

B1: siLuc2-153 siDNA (dsDNA)
DNA 1: TCGAAGTATTCCGCGTACGTG
DNA 2: CGTACGCGGAATACTTCGATT
modifications: all ribonucleotides replaced by DNA
As for B1, the binding result in the data set with TRBP was “no binding”.

B2: siLuc-36 nonmodified (dsRNA)
RNA 1: UCUUCCAGCGGAUAGAAUGGC
RNA 2: CAUUCUAUCCGCUGGAAGAUG
For B2, the binding result in data set [1] is on record as “binds”.

B3: siLuc-36 siDNA (dsDNA)
DNA 1: TCTTCCAGCGGATAGAATGGC
DNA 2: CATTCTATCCGCTGGAAGATG
modifications: all ribonucleotides replaced by DNA
For B3, the binding result (in the data set with TRBP; in data set [1]) was “no binding” each time.

B4: siLuc-36 TCA-RNA (mixed)
DNA 1: TCTTCCAGCGGATAGAAUGGC
DNA 2: CAUUCTAUCCGCTGGAAGATG
modifications: DNA: seed duplex and subdomain B (guide 1-8, 13-14; passenger 6-7, 12-21)
Turning to B4, the binding result in data set [2] is given as “binds”.

Values taken from PMC4005638, “Interactions between the non-seed region of siRNA and RNA-binding RLC/RISC proteins, Ago and TRBP, in mammalian cells”.
